Among the data in the RNAGym collection of RNA variant scans (doi:10.7554/elife.80360) are self-cleavage values, retold here.

B1: Hairpin Ribozyme (parent)
chain: GUCCUCUUUCACGUGCGCGUGAAAGAGAGAAGUGAACCAGAGAAACACACGUUGUGGUAUAUUACCUGGUA

This data set covers variants of B1. Nature of the data set: self-cleavage, relative activity (ratio to wild type); higher = more cleavage; co-transcriptional.
For the variant G25C A41U, the self-cleavage turned out to be 0.931.

Regarding A26G C46G, the self-cleavage came out at 0.19.

Regarding A26U U63A, the self-cleavage stood at 0.127.

Turning to A26G G57U, the self-cleavage was 0.252.

As for G25C U58C, the self-cleavage amounted to 0.559.

On to G25C U58A, for which the self-cleavage is 0.308.

For the variant A26C G54U, the self-cleavage stood at 0.314.

As for A26C G54A, the self-cleavage was found to be 0.511.

For the variant G25A U53C, the self-cleavage came out at 0.659.

Regarding G25A U53A, the self-cleavage was 0.472.

Consider A26G A47G, for which the self-cleavage amounted to 0.161.

For the variant G25C G40A, the self-cleavage amounted to 0.0978.

Consider A26G A43U, for which the self-cleavage stood at 0.121.

On to G27A G54C, for which the self-cleavage is 0.105.

For A26C A28G, the self-cleavage amounted to 0.785.

In the case of G25A G40U, the self-cleavage was determined as 0.153.

Turning to G25U C66U, the self-cleavage was determined as 0.315.

For G27A U70G, the self-cleavage turned out to be 0.227.

G25U A35C: the self-cleavage came out at 0.691.

For the variant G27C A47G, the self-cleavage was 0.125.

As to A26C G51A, the self-cleavage stood at 0.67.

As for G25C G27A, the self-cleavage turned out to be 0.213.

With G25C C50A, the self-cleavage was 0.214.

G27C A45G: the self-cleavage stood at 0.19.

With G27C A45U, the self-cleavage is 0.202.

With G25U A39C, the self-cleavage was determined as 0.336.

Regarding G27C G69A, the self-cleavage was found to be 0.0883.

Consider G27C A59U, for which the self-cleavage amounted to 0.16.

Take G25U U33G: the self-cleavage came to 0.168.

Regarding A26U A41C, the self-cleavage stood at 0.776.

For the variant A26U A35U, the self-cleavage came out at 0.302.

A26U A35C: the self-cleavage was found to be 0.846.

On to A26G A28C, for which the self-cleavage stood at 0.358.

For the variant A26G A28U, the self-cleavage turned out to be 0.491.

Regarding G25C C66G, the self-cleavage was 0.217.

With A26G C66G, the self-cleavage was found to be 0.353.

As to A26C A44U, the self-cleavage came to 0.193.

Consider G27A G40C, for which the self-cleavage amounted to 0.104.

As for G25C C38G, the self-cleavage was 0.15.

A26U A47U: the self-cleavage was 0.0699.

G25C C37G: the self-cleavage came out at 0.225.

Consider G25U C38G, for which the self-cleavage was determined as 0.0734.

Regarding G27C A41C, the self-cleavage was 0.228.

For the variant G27C A41U, the self-cleavage worked out at 0.367.

For the variant G25A U70C, the self-cleavage turned out to be 0.588.

Take G27A A64U: the self-cleavage came out at 0.174.

For the variant G27A C48A, the self-cleavage amounted to 0.178.

Turning to G27A C48U, the self-cleavage worked out at 0.183.

As to G25U G42C, the self-cleavage stood at 0.22.

Regarding G25U G42U, the self-cleavage is 0.183.

Take A26C C66U: the self-cleavage worked out at 0.315.

Regarding A26C A61C, the self-cleavage is 0.0459.

Regarding G25C U67G, the self-cleavage worked out at 0.152.

For G25C U67A, the self-cleavage amounted to 0.136.

For G27A A49G, the self-cleavage came to 0.237.

As for G27A A49U, the self-cleavage worked out at 0.112.

As for G27A A49C, the self-cleavage amounted to 0.154.

As to A26G A36U, the self-cleavage is 0.326.

With A26G A36C, the self-cleavage was 0.474.

Consider A26C A30U, for which the self-cleavage came to 0.165.

Regarding A26C A30G, the self-cleavage amounted to 0.0971.

With A26C C50U, the self-cleavage worked out at 0.306.

With G27A G34U, the self-cleavage was determined as 1.3.

In the case of G27A G34C, the self-cleavage worked out at 0.945.

For the variant G25C A59C, the self-cleavage was 0.232.

As for G25C A59U, the self-cleavage turned out to be 0.134.

As for A26U A71G, the self-cleavage came to 0.781.

As to G25C U60C, the self-cleavage came to 0.673.

A26U A44G: the self-cleavage is 0.288.

For A26U A44U, the self-cleavage came out at 0.141.

As for A26U A44C, the self-cleavage is 0.0769.

As for G25U A30U, the self-cleavage was 0.0827.

As to G25U A30G, the self-cleavage was 0.124.

With G27A G42C, the self-cleavage was 0.145.

Take G25C A49G: the self-cleavage is 0.255.

As to G25C A49U, the self-cleavage turned out to be 0.21.

For the variant G25U U53G, the self-cleavage was determined as 0.376.

Regarding G25U U53C, the self-cleavage stood at 0.689.

Consider G25C A64U, for which the self-cleavage was 0.134.

For G25C A36G, the self-cleavage stood at 0.497.

With G25C A36C, the self-cleavage worked out at 0.539.

Consider A26U U55G, for which the self-cleavage was found to be 0.281.

In the case of A26U U55C, the self-cleavage is 0.23.

G25A G51C: the self-cleavage came out at 0.479.

G27A C65U: the self-cleavage was 0.145.

For G27A C65A, the self-cleavage came out at 0.396.

G27C A30G: the self-cleavage came out at 0.172.

In the case of G27A G69C, the self-cleavage amounted to 0.198.

Take G27A G51U: the self-cleavage turned out to be 0.458.

With G27A G51A, the self-cleavage came out at 0.337.

With A26G A71C, the self-cleavage was determined as 1.55.

Turning to G25U U70A, the self-cleavage stood at 0.432.

Regarding G25U U70C, the self-cleavage was 0.679.

As to G25U U70G, the self-cleavage was determined as 0.613.

Turning to G27A U53G, the self-cleavage was 0.518.

G27A U53C: the self-cleavage is 0.64.

Take G27A U67C: the self-cleavage worked out at 0.141.

In the case of A26G G51U, the self-cleavage amounted to 0.9.

In the case of A26G G51A, the self-cleavage was found to be 0.938.

As to A26G G51C, the self-cleavage came to 0.78.

Consider G27C U62A, for which the self-cleavage worked out at 0.205.

With G25A G69C, the self-cleavage was 0.228.

A26C A43C: the self-cleavage was 0.159.

For A26C G57U, the self-cleavage was 0.32.

As for G27A A44U, the self-cleavage amounted to 0.139.

G27A A44C: the self-cleavage turned out to be 0.143.

On to A26G C37A, for which the self-cleavage was 0.268.

On to A26G U58G, for which the self-cleavage came out at 0.693.

As to A26G U58A, the self-cleavage came to 0.755.

Regarding G27A G57C, the self-cleavage was 0.184.

Take A26U C65U: the self-cleavage was found to be 0.161.

In the case of A26U C65A, the self-cleavage came to 0.701.

G27C U60A: the self-cleavage worked out at 0.177.

G25C A71U: the self-cleavage was determined as 0.476.

Consider G25C A35G, for which the self-cleavage was 0.578.

Take A26U U60A: the self-cleavage was determined as 0.328.

For G25U G69C, the self-cleavage was determined as 0.0669.

Consider G25U G69U, for which the self-cleavage was determined as 0.165.

Turning to A26G A61C, the self-cleavage was 0.173.

In the case of A26G U53G, the self-cleavage is 0.682.

Take A26U A49G: the self-cleavage is 0.41.

As to A26U A49U, the self-cleavage was determined as 0.0963.

Turning to A26U U62G, the self-cleavage amounted to 0.141.

In the case of G27C U58C, the self-cleavage is 0.214.

Take G25A G42A: the self-cleavage is 0.0699.

Turning to A26U A30U, the self-cleavage was found to be 0.11.

Regarding G25U A64C, the self-cleavage came out at 0.177.

As to G25A U55G, the self-cleavage worked out at 0.159.

As to A26U U58G, the self-cleavage amounted to 0.631.

As to G27A U52G, the self-cleavage was determined as 0.431.

For the variant G27A U52C, the self-cleavage worked out at 0.477.

For A26C G68C, the self-cleavage came to 0.147.

For the variant G27A A61U, the self-cleavage was 0.155.

With G27A U60C, the self-cleavage was determined as 0.657.

Regarding A26C G56U, the self-cleavage was determined as 0.23.

As to A26G U60G, the self-cleavage came to 0.717.

On to G25C U33C, for which the self-cleavage came out at 0.319.

For G25C U33G, the self-cleavage worked out at 0.197.

As for G25C A39U, the self-cleavage came to 0.262.

For G25C A39C, the self-cleavage amounted to 0.324.

Take A26C U55A: the self-cleavage stood at 0.194.

For the variant A26C U53C, the self-cleavage came out at 0.741.

Turning to A26U C66U, the self-cleavage was 0.276.

On to A26U C66A, for which the self-cleavage is 0.146.

With G25C G34U, the self-cleavage was 1.25.

In the case of G25C G34A, the self-cleavage came to 0.821.

G27C U55C: the self-cleavage was 0.186.

A26U G57C: the self-cleavage was 0.123.

A26U G57A: the self-cleavage is 0.184.

As for G27C A44U, the self-cleavage is 0.0991.

For the variant G27C A44G, the self-cleavage was 0.21.

Turning to G25U C48A, the self-cleavage worked out at 0.143.

As for G25U C48U, the self-cleavage worked out at 0.163.

Regarding A26U G54C, the self-cleavage was 0.305.

Consider G25A U62A, for which the self-cleavage is 0.121.

In the case of G25A U62C, the self-cleavage came out at 0.224.

Take G25U C65U: the self-cleavage was found to be 0.188.

As for G25U C65A, the self-cleavage came out at 0.735.

Turning to G25U C65G, the self-cleavage was 0.211.

Turning to G25U G57A, the self-cleavage was 0.145.

G25A G57A: the self-cleavage turned out to be 0.205.

With G27A A47C, the self-cleavage worked out at 0.214.

As to G27A G29U, the self-cleavage turned out to be 0.126.

On to A26U G32U, for which the self-cleavage is 0.202.

For the variant A26C A31G, the self-cleavage amounted to 0.445.

Turning to A26C A31U, the self-cleavage amounted to 0.097.

Regarding A26C A31C, the self-cleavage amounted to 0.0424.
